The values below come from paper PMC3965211.

For this experiment, the target named is Full-length human His6-Kif15 (human) (UniProt Q9NS87). In words: glycerol gradient ultracentrifugation; 2.5 µM hTpx2 (dimer) + 80 nM hKif15 (tetramer), 5-40% glycerol gradient in 35 mM sodium phosphate buffer.
Sequence of Full-length human His6-Kif15 (human) (Q9NS87 whole entry): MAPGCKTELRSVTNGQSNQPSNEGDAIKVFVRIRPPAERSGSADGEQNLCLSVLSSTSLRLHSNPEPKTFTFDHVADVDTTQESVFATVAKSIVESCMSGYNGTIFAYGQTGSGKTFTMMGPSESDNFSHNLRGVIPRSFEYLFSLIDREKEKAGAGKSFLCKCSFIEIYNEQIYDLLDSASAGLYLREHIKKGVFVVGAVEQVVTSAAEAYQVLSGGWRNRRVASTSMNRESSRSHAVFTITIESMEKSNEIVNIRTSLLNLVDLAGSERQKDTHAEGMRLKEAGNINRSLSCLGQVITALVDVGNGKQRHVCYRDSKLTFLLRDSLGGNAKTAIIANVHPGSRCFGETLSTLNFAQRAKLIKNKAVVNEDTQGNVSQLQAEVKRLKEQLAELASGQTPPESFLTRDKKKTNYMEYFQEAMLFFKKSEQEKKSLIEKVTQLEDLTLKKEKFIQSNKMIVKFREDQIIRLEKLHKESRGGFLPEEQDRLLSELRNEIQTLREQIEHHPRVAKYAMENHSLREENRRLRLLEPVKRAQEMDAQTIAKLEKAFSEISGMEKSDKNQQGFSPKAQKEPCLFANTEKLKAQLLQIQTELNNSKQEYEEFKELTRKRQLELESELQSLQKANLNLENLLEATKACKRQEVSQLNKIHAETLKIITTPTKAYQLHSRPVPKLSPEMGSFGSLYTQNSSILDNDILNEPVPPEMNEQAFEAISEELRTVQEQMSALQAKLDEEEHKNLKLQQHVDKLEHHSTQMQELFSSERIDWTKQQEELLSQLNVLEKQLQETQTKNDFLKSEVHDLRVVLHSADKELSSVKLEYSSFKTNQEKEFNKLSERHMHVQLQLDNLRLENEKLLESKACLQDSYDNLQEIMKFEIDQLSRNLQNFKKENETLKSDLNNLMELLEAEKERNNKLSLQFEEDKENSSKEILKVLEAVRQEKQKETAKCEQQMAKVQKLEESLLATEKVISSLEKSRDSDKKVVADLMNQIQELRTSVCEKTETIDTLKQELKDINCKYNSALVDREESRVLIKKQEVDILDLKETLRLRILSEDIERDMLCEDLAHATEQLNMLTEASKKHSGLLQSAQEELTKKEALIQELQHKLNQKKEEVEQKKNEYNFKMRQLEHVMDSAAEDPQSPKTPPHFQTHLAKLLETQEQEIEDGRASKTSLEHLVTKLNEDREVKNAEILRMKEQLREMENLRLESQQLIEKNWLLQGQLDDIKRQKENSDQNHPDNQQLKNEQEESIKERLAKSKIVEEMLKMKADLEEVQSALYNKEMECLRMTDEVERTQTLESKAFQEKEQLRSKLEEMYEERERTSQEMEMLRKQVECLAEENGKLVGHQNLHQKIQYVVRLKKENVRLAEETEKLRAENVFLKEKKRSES

For the substance “human His6-Tpx2 (from UniProt Q9ULW0 1-747) (natural protein)”, the fraction of the provided hKif15 in the complex worked out at 0.33.
